Substitutions are numbered along the chain they refer to. Names may count otherwise.
Tests used:
[1] = target: T1, Cel1A (Bgl II) (Trichoderma reesei, UniProt O93785, L2V/L167W/P172L); assay: Dixon plot, pNPG hydrolysis, p-nitrophenol absorbance […] nm; type: biochemical; conditions: pNPG substrate (low concentrations), 100 mM acetate pH 5.5, 30°C; competitive; glucose also stimulates at higher pNPG; read-out: WT
T1 construct: gene bgl2; forward primer with NcoI site encodes N-terminus MVPKDFQW; GH1
T1 sequence (O93785 1-466 L2V/L167W/P172L): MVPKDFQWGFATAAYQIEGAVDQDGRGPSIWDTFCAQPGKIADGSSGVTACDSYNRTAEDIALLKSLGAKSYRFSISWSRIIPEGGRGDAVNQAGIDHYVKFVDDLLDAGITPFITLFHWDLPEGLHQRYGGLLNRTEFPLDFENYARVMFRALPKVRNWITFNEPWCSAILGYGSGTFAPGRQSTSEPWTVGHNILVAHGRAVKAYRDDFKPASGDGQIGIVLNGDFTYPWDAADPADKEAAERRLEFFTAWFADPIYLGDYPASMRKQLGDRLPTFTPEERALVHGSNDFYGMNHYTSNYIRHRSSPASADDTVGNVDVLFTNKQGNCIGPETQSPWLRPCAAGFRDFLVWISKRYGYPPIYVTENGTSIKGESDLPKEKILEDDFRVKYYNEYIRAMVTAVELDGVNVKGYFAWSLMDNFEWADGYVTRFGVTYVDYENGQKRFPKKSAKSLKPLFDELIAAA

[2] = target: T2, Cel1A (Bgl II) (Trichoderma reesei, UniProt O93785, L2V); assay: as above; type: biochemical; conditions: pNPG substrate (low concentrations), 100 mM acetate pH 5.5, 30°C; competitive; read-out: WT
T2 construct: gene bgl2; forward primer with NcoI site encodes N-terminus MVPKDFQW; GH1
T2 sequence (O93785 1-466 L2V): T1 sequence (O93785 1-466 L2V/L167W/P172L) with W167L, L172P

[3] = substrate: O=[N+]([O-])c1ccc(O[C@@H]2O[C@H](CO)[C@@H](O)[C@H](O)[C@H]2O)cc1; assay: purified protein; type: biochemical, Trichoderma reesei; conditions: 100 mM acetate pH 5.5, 30°C, no glucose
[4] = substrate inhibition above 0.25 mM pNPG

OC[C@H]1OC(O)[C@H](O)[C@@H](O)[C@@H]1O (stereo partly drawn) [glucose]
Ki [1]: 50 mM
Ki [2]: 50 mM

B1: Cel1A (Bgl II) (Trichoderma reesei; L167W/L2V/P172L) (protein)
chain: T1 sequence (O93785 1-466 L2V/L167W/P172L)
notes: forward primer with NcoI site encodes N-terminus MVPKDFQW; GH1
Km [3, 4]: 0.23 ± 0.01 mM
Vmax [3, 4]: 13.3 µmol/min/mg

B2: Cel1A (Bgl II) (Trichoderma reesei; L2V) (protein)
chain: T1 sequence (O93785 1-466 L2V/L167W/P172L) with W167L, L172P
notes: as for B1
Km [3]: 2.48 ± 0.75 mM
Vmax [3]: 7.7 µmol/min/mg

From PMC4720395, “Improvements in Glucose Sensitivity and Stability of Trichoderma reesei β-Glucosidase Using Site-Directed Mutagenesis” (PLoS ONE, 2016)
